From the Immune Epitope Database (IEDB)

What was measured:
Test in all cases: IEDB peptide-MHC binding, purified MHC/competitive/radioactivity; ≥ and ≤ were set here for values at or beyond the usual limits of such assays
Conditions in all cases: source organism: Bordetella pertussis
[1] = target: HLA-B*57:01
[2] = target: HLA-B*53:01
[3] = target: HLA-B*44:03
[4] = target: HLA-A*02:01
[5] = target: HLA-B*07:02

IAHRTELRG
IC50 [1]: 66.2 µM

HSLYASYEY
IC50 [1]: 0.116 µM | IC50 [2]: 42.5 µM

LVYYESIAY
IC50 [2]: 12 µM

AAMQGAVVH
IC50 [3]: ≥ 78.2 µM

GLTDGVSRI
IC50 [4]: 69.4 µM

RVTVSGGSL
IC50 [5]: 14.5 µM

LNDSKITMG
IC50 [2]: ≥ 78.2 µM

AAPAAHADW
IC50 [1]: 19.8 µM

WLTWLAILA
IC50 [4]: 40.1 µM

IENTAKLSG
IC50 [3]: 44.4 µM

SEAMAAWSE
IC50 [3]: 7.6 µM

SPQPIRATV
IC50 [5]: 0.149 µM
